Protease stability score data for 47 sequences are collected here from the NTF2 design screens of Basanta et al. (2020).

This series in a line: protease stability score; higher = more stable; yeast display proteolysis, trypsin and chymotrypsin.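 Note: log10 excess protease needed over predicted unfolded state with 0 meaning unfolded.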
As for “DEDKEQELAHHIISIIQTGNPDSFMNMADPNAKVNIGDTRLRGREQIVHFYREQFRQADNREVKDVRAHNGRITIDAVRNINGRNERYVVDIQIENGKATEINVRHT”, the protease stability score was determined as 0.045.

As to “DKDDQKRFTDTATKILQHNNPEKMRELADKDARLVVGDRTYTGRRQIVRHMEHLFRRVDHVQIKHVDVRGDHVEIDAVLDYNGRKERMTFVFQAHNGRIKQVEVQTG”, the protease stability score turned out to be 0.603.

On to “DEEKNRKQATKVARNIADGNEDEIRKLADEDARANVGDKQVHGRDHVRKLLSDFHHTADRVKLDTINVSGDKVNAKLVLDYNGRRVSVVVQAEVRNGRLKQVNIRATNPEHQKKVES”, for which the protease stability score amounted to 0.239.

“DEERLQKIIEKAFKVIQNGNKEEAQKLGKPNVEYHYLDKTLHGPKAVEHAVEHVKKVGAEVKQQEIEVHGGTAKAVFQYHVGDKTVQTTAEVTYEGDKMKKARVKISEEVKKMMHRG” displayed a protease stability score of -0.076.

Take “EERDEAENAIRRFLEAVEEGDEDNLREQADPNAKFDVGDKTVHGMKSYARQQIEERERIDHVDYRISSVRLEGNRADVKVKFKARVDGRTKTATATINMQRHNGRMKIKEMKIN”: the protease stability score is 0.018.

“DDRDIERAKEMFKAIKTGDPDRLSELVDENARVKIGDKEWHGNTEWVEDLERKKKEMSVDLQIHKIEDRNGVAQIHMTRRMDHNGKPRSDKYVLFIRARNGRIVDVRAEERS” returned a protease stability score of 0.097.

For “DDQVAKMVRKLLRLEESGNEEELRKLADEEAEFVVGDKRYRGMTEYVQSVYHKKKEIRFKIITYSAEDDGDKIVVIIKMTNNHNGQPDTFRVKVVFVANNGNLKHANFRKRK”, the protease stability score was determined as 0.39.

Sequence “DEEVQNLFEELVEAVKTGDEDRLRENVDPNATFEYGDKTFHGMDTFVKTVKKIRESMRLTLEVKSYEVQGDKVKAEVDAKQDHNGQPVSYTMDLHIDARNGKVKRIVRQVPEEDKTRIER” showed a protease stability score of -0.032.

The sequence “DEHEKMKKHMTEWRSAFKRGDPDTVRKLADKDVDVEVGDKVLHGREQVANHVVDLARTVDHVDIRIETMEVNGDHFVLVMSAVFDVNGKRDERKFVLVAKLHNGTIKVKNMKRS” gave a protease stability score of 0.07.

For the sequence “DEQDDAHKAKEFLEAVVTGNEERLRRMVDPNARIHYGDQEYHGREKIVDLMIRWRERVDHFTIDRVHSHNGRVQMDAFFTHNGRTKRFVARVVVHNGKVKSIEYTDG”, the protease stability score stood at 0.017.

Consider “DEQLVKILQRFRKAMEHGDPKEAQKYFDPNAEFVYGDKEIHGREQVNTWIHTFMRSIRVDIKSLTVRASGNKAHIQYSAVYEENGRPKTAHFHMTVQVTNGKIKHADVKYRG”, for which the protease stability score came out at 1.1.

“DHEDLVKRFIETMKEIYHTGNFRELANLADEDVQIHVGDKTVTGREHLRKEQETTERHADHATMRVDEVEVDGDKARVVFTVTIQVNGEKRSDRLVVEFRVHNGQLRIKSMRQQ” had a protease stability score of 1.05.

In the case of “DERNERVFHHFVEAISFNDPQQARRNADKDVKFDVGEKVLHGREEWDKQMEHNKKHMRQDMRVKEVSTSGDKVTARVEQEHNHNGKPSTRDVKMSVEINNGKIKSFRLTTVS”, the protease stability score was -0.129.

“EEELERRVEDQFKDWNTGDPDRDREMFDKDATVRVGDKKIKGSSQFRDELEKRRREMEFHVEVKDIQDEPGRVNVTFKFRTNHNGQPKEDTMRFHMTWHNGRIKHMSIHHDG”: the protease stability score turned out to be 0.641.

Turning to “DTRVARLVQEIMENVKKGSKEHLKQMVDPNVKIRVGDKTFHGREDFVTHLMDERKEARVDYHLKDVKDEGDKAFADVVQHVDKNGQPRNRHFIIDARAENGRLKEMRIENTK”, the protease stability score was -0.3.

Turning to “DERVAHEFVKAINKGDPDRLNELADKNARAEVGDKTFHGREKLEQMWKQWKKMVDHIHIRRVRVHNGHIHVDYVVNIDGQNNQLEIKAVVENGKVQEVKIQVTDEQNQDKLRKKMD”, the protease stability score came to 1.25.

On to “DEDAHRRASTLMTAIENNDPHKVMQMFDEDAKVDVGDKRVSGRERQAEEERERNTQSRVRYKSYKIDAQGNKVRVHADFEVHHNGRPDRKRMKAVFNYDNGKIKQATVKDDK”, for which the protease stability score was -0.235.

As for “DDDKRKQFEDYMRKFKTGNEEDLVRNMDKDVDVHIGDKTWDGREEAAHELAQHRRHARIEYKSLSVDDKGDKLQVKMQYVDEHNGTPRDSHVVATLRLKNGKIRMIDVKRDG”, the protease stability score was -0.17.

With “DEEFRHQVKQFLRAETRGNEETLKEQMDKDATFEVGDRVINGHEKYASDQHERRKEIRVEIKSMEVDAQGNTADYEIDFVEHFDGKPHRRKVRASIRVHNGRVKEIVEKDSQ”, the protease stability score is -0.184.

In the case of “DEEDEERFEELLKAEEDGDEDRMNELVDENAEFHYGDTVIDGMTDYAREVVHRLNELRWHIDWDDMKQSNGRIQVRAKLVVKVNGTPNNDDVERQVQWDNGRVHQMNERFDSKKHKEMDK”, the protease stability score is -0.158.

Regarding “DERVHEAFRRFVHALKEGDPDKIRENADEDVRIEVGDTEIQGRETLADRVEEEMKDMQIEYQIDSIKVHGNKAKVNMRVVKNHNGKPETRKFTVHVTFDNGKVKNVHVQDDR”, the protease stability score amounted to 1.3.

Sequence “DEHVEHLVHEIMDALRTNDPDRLRQLMDPNAHAQIGDKQLHGRRTMVDHWQDTLEEIRVSIDVKSFSVKNGRADMTAKVEREDNGKPDDRTADIHIEFHNGKAVRIDVKYKG” yielded a protease stability score of 0.275.

As to “DEEDAEKILRTAAKAVENGDHKKLVDLGKDGVEYQLADEKAHGPEVMKKVLDYQRKLGVRVELKEVHHEGNKVVTVLVYYHGNTKLEVQIHATADGGKIDRVEVKVPETLKKQLKHG”, the protease stability score was determined as 0.137.

In turn, “DDDAQNTLSDRINLIKQGNKEEVDKQADPNATVQVGDKKVQGREEIRRWIKHVKDQLNVQIEIKHVEAQGNKVRIDASFRARINGKPVRIRFILIADMHNGRFKRVVMHLDEDQQRKYEK” yielded a protease stability score of 0.943.

For the sequence “DDRQRRQFAERVQKVLRTGDPERFMQMADENVQVHVGDQTYRGRDQAEKNMREFVKRVDHLQIISFHFEGNHAVIVFIAHFDGKEATIEMVIRFSNGHIKEMKINPDQIRQMRS”, the protease stability score was 1.21.

The sequence “DEEQNTRFHRMLEDLKTGNEERVQDYMDPNVKVRIGNNVLDGREHAATHMVQLNREIRFHIHNFTVQVHNGRLDIKANADADVNGKPIKFSYERYAILHNGTIKRMREQFDEHLKRQLDR” showed a protease stability score of -0.013.

As for “DETKQQELIHRLLEALETGNPDEYIKNLDKDVRVVVGDTEVHGREDLKKLFERLTHQIDHQHIKDYKVSNGQADVKLVVVNNGQERRLTIKIVVRNGHVKEVVWNDR”, the protease stability score was found to be 1.77.

Sequence “DEEEMDRFIKHLERNDEDRWVQMADPNVKVRIGDNTLRGREQLKKWFHRFRKRVDTYSIDSYTVHGEKIKVRAKFQVDGRNVQFSFVVVIKNGRIKSATYEARNEEDQEQDKRDLE” had a protease stability score of 1.5.

In turn, “DEDDVNKAHNILKHGDWEKFASQADENVRIHIGNKEVNGRERASEVLKLIRDRVDSEEIKRMSFHGDKVVVDAEQVVNGKKVRFVIRVKAHNGRIKQMDFQFRNEEDKKKFDEAVN” registered a protease stability score of 0.477.

“DHEEVHKLAKKLAEAVVNGNEDRIRKFLKPDVEYKNIDEEYQGKQVAEVIVKTIKTKGVRLKVEEVKVEGDTVEAQYVFQVNGTKVTAHVRAEAKGGRVDKWQVHISDTAKKLRKEG” had a protease stability score of 1.15.

For “DKEVIKQLKHFMKALEKGDPDKLVELADPEAKYEYGDRTYKGMSNVAEELVNTRREIRFQLTLQSYEVQGEKARVKAVYVKDRNGKPDNQVVVIEMEAHNGKIKSMQERSDQ”, the protease stability score was 0.501.

“DDDQARKFVNIVQTGDEDKLLELAPPDVRVKVGDHRVHGRENVKRMVEKLKKSVDHFSIRQIHVHNGRVHVDMDVNVNGQTIRAEYVFVAHNGKLEEISIEVTDETVHDLMTRILS” had a protease stability score of 0.665.

Take “EEQAQENLENLIRAIEHGDHKTAKELMDPNVKFHYGDKQYHGRERVTDFIRTVHEQMDVEIESFDLKLENGRAKAKMTAVYDVNGKPVKISVTYVATVHNGKVKHLQRRVDPSQQREVKG”: the protease stability score came to 1.02.

“DERLEDKMRKFLEVLRTGDEKKLRDLADPNVRFDIGEKKYRGRDEAVREYKRMRDEIRFEIKIRSLEAQGNKVDVTFEMTYDHNGKPKHNVVKLVFEQHNGKLKQLKVKSDK” came in with a protease stability score of 0.596.

As to “DEKHDAKRVWETILNQLRRGDSEEFMKLADKDVKIEYGDKTIHGREDLKSWMNERQKDYDHLDADLTHMDVQGEDVNVTYTDRAKHNGTEHHRTVQAVFRVHNGRLRLQSWYHS”, the protease stability score amounted to 0.494.

As for “DEEAAKRLENILKAEERNDEDSLRRLMDKDAHINVGDRQVHGMDRRRENVQHQSRRSDIQLESINKHENGDTVHVDVVRRYQHNGRPSRERFDAVAQVHNGKMRSMTAQDSQ”, the protease stability score is -0.44.

Regarding “DEEDAQTLQRVLNHGDPDEWVRLADENVHARVGDKTYSGREHLKTFWHKLREQVDEIEVKSVDISGDRVQADIIYVVNGKRIRVTMVAHVNNGRIKEYKIHYRNEEVRDQLREAQS”, the protease stability score was 0.793.

As for “DEKKQQELAETFWKIFKTGDEEKLKQMMPQDVRARYGDKSVTGRDRIVTTIKKRVKRADHINVKHISVHNGKIHIDAVIVVDGRKQRDTINIKMRNGHIKNINVDPEKDKQNFS”, the protease stability score is -0.217.

Regarding “DEDVERIIKRFLTALTHNDPEQAAQNVDPNAQVRIGDKSVHGKDQLKNRIEEEVKEMRVDIKHMSVDVKGNKASIHLHFVIQTNGKPDEKTAVMEVVVQGDKIHELELHDTK”, the protease stability score came out at 0.725.

In the case of “DEEEQHKTATKILSDFHTGNPDDMRENADEDVTAQVGDKTYTGREEFHKAVKTIVDRVDHLEIKSFDFHNGQLEANFVININGKNEKKKLVMRVENGRVKHMKIDDG”, the protease stability score was -0.221.

On to “DEENAKTLKQQMNQYQSGDEEEVQENVDKDAKFVIGDKRIHGREKYREQVRRELEDIRIDVKIKHLNDKGEKVQVHARLERNHNGRPTDATVDVVVRWHNGRAKEAQFHTDG”, for which the protease stability score is -0.11.

“DDEKQHTIAKQLVEVLQQNDPDQQRDMVDENANIDIGDKTYQGQEDARKAMDELRRQIDHLTVTSFNVHNGRVEIRARARVNGTDVTVHIEAQLHNGRVKKMKIKYG”: the protease stability score was -0.196.

Sequence “DERAHSHVEDFFRNLKSGNEDEIRKLLDPNARIKVGDKVIHGRDDAKRYVQQQKREMRMEYDVKTVDAQGDKIQVQVNVTQQHNGRPVQYQQNLHMTVENGDIHTVNYQMDTRIERVQES” displayed a protease stability score of -0.231.

“DDTVRELVKQLRTALESNDEKKVKRLVDPNAQFQYGDKTLHGMTHAASRRVKEHQEIRLSIKKFHVNVSGDHVRVEFRYEVNVNGRPRKASATFTARFENGKMKEQRLRFDEDEYRKLKK” had a protease stability score of 0.063.

The sequence “DQEEAERVVKRAIKALENGNSKELKDLGKEGVEYEFGDKKIHGPDALVKQFRTLQKKGVEMEFKEHHVEGDEAHTKVRYRNGDKENEATITATVKGGRIDRVQVNVPETIRKIVKHG” registered a protease stability score of -0.076.

For the sequence “DEEAVNLINRLLEARKYNDPDSMKRLADENAQFVIGDKEVKGMETYARHVVQTMSRWRIDIKSVHHQSRGSKAEVDVRAKVNVNGRPDTLSITYRAHVTNGRIKELEVRFDPDQHRKLTS”, the protease stability score came to 0.019.

Sequence “DDKKRVTQVFREWREALQTGNEEELHKQADKDVKFDVGESEFHGREKFVKHVQERLTQVDHLDIKMHSLKVDNGKADVSVIYRQNHNGKEDETTAVIIMTLSNGHAKIDTVKYG” gave a protease stability score of -0.195.
